Source: patent publication US20250388666A1 (BRIGHAM AND WOMEN S HOSPITAL, published 2025)

B1: chimeric parental antibody VH0/Vκ0 (antibody, IgG4, V domains shown)
VH: EVQLVESGGGFVKPGGSLKLSCAASGFSFSDYYLYWVRQTPEKRLEWVATISVGGGNTSYPDSVKGRFTISRDNAKNNLYLQMSSLKSEDTAMYYCTRGLYYGPAWFAYWGQGTLVTVSA
VL: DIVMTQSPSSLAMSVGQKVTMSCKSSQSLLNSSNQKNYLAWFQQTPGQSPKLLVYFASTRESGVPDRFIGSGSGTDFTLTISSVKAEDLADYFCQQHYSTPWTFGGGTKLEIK
notes: IgG4 (S241P), kappa; also called Chimera; chimeric antibody
B2: VH2 N56Q/Vκ4 S27(f)A IgG (antibody, V domains shown)
VH: EVQLLESGGGLVQPGGSLRLSCAASGFSFSDYYLYWVRQAPGKGLEWVATISVGGGQTSYADSVKGRFTISRDNSKNTLYLQMNSLRAEDTAMYYCTRGLYYGPAWFAYWGQGTLVTVSS
VL: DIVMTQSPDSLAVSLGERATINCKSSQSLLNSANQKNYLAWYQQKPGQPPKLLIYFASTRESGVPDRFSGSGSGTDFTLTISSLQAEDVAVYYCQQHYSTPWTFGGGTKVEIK
notes: IgG4 S241P, kappa; also called Parent; Parent IgG

Key:
[1] = target: T1, CEACAM5 on transfected HeLa cells (UniProt P06731 35-685); assay: flow cytometry, transfected HeLa
T1 construct: whole, on cells; also called C5
T1 sequence (looked up): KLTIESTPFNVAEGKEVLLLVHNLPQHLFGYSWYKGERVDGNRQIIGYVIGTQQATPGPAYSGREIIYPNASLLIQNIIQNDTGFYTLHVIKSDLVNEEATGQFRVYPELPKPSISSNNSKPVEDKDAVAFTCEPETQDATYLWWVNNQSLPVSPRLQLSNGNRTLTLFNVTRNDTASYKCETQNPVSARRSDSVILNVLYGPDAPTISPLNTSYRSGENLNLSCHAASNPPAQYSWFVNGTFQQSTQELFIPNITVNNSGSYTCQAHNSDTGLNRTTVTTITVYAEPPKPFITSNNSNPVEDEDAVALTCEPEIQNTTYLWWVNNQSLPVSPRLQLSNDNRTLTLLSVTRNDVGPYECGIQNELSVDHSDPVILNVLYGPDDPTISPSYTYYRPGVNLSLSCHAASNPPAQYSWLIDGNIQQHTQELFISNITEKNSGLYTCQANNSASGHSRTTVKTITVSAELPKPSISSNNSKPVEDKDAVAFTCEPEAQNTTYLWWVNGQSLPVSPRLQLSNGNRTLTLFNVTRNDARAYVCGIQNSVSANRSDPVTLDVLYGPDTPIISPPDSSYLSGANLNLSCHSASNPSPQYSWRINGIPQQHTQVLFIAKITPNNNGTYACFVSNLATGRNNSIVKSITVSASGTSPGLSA
Experimental: (§1) Binding selectivity of the selected antibody variants was assessed by flow cytometry using HeLa cells transfected with vectors expressing CEACAM1, CEACAM5, and CEACAM6, respectively. The resulting cells were used for flow cytometry experiments and were cultured at 37° C., 5.0% CO₂ in Dulbecco's modified Eagle's medium supplemented with 10% fetal bovine serum, penicillin (100 U/ml) and dihydrostreptomycin ([…]). Cell lines were stained with the indicated antibodies followed by fluorochrome-conjugated monoclonal antibody specific for the indicated antibody isotypes such as human IgG4 or mouse IgG1 together with viable dye (DAPI). Data were acquired with a Cytoflex flow cytometer ([…]) and analyzed with FlowJo software (TreeStar, V7.6.5 for Windows).

[2] = target: T2, CEACAM1 on transfected HeLa cells (Homo sapiens (Human), UniProt P13688 35-526); assay: flow cytometry, transfected HeLa
T2 construct: also called C1
T2 sequence: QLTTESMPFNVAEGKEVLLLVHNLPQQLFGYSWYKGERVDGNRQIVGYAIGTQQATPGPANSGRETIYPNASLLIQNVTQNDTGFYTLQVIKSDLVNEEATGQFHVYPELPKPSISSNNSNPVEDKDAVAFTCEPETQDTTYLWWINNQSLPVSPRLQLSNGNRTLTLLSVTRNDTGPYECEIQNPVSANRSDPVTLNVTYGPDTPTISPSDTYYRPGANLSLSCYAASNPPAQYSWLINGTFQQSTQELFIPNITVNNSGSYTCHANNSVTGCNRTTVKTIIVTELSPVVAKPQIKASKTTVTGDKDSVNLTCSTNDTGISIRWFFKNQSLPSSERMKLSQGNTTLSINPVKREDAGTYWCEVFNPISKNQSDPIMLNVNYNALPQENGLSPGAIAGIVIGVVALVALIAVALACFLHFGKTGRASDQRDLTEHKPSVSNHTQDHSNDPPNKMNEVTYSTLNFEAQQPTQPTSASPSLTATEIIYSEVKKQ
Experimental: as §1

human GST-CEACAM1 = target: T3, human GST-CEACAM1 (human, UniProt P13688 35-141, limits assumed); assay: competition ELISA vs murine parent antibody
T3 construct: printed both as GST-CEACAM1 and CEACAM1-GST; also called human CEACAM1-GST protein; hCEACAM1-GST; not shown: GST tag
T3 sequence: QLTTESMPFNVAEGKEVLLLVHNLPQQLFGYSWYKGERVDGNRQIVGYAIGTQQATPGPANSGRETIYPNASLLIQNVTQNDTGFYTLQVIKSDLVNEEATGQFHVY
Method in brief: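 Competition ELISA on plates coated overnight at 4° C with 1 μg/ml GST-CEACAM1, blocked with 2% BSA/PBS. Each antibody variant competed against the murine parental antibody for antigen binding, benchmarked against the chimeric VH0/Vκ0 antibody run on every plate.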

[3] = target: T4, CEACAM6 on transfected HeLa cells (UniProt P40199 35-320, limits assumed); assay: flow cytometry, transfected HeLa
T4 construct: whole, on cells; also called C6
T4 sequence (looked up): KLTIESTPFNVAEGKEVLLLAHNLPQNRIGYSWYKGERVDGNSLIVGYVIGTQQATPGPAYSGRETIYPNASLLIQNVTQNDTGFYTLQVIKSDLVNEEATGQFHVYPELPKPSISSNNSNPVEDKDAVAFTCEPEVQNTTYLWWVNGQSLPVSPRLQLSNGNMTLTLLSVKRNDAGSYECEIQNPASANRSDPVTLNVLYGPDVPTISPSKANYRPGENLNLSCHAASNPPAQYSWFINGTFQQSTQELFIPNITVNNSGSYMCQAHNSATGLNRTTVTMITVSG
Experimental: as §1

Binder | relative fluorescence intensity [1] | relative fluorescence intensity [2] | average relative IC50 (normalized to chimeric antibody) (human GST-CEACAM1) | relative fluorescence intensity [3]
B1 | 0.42 | 84.2 | 1 ratio | –
B2 | 0 | 89.3 | – | 1.31
